Measurements: patent US20250090663A1 (MYELOID THERAPEUTICS, published 2025)

T1: IL13RA2 Protein, Rhesus macaque, His tag (Rhesus macaque, UniProt A0A5F8A9D9 27-343)
T1 construct: the summary sentence says cynomolgous; also called Rhesus macaque IL13R alpha 2 protein with His tag; cynomolgous IL 13RA2 (as the text calls it); not shown: His tag
T1 sequence: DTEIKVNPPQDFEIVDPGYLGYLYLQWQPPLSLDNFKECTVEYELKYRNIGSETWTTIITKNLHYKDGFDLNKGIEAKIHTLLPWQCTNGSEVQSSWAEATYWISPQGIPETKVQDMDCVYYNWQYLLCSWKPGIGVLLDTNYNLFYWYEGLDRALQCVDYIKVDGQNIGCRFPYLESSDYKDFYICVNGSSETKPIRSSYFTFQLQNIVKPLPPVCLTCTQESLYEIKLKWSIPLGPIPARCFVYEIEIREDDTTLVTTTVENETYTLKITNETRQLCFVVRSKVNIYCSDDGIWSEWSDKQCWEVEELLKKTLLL

T2: IL13RA2 Protein, mouse Recombinant- His tag (mouse, UniProt O88786 22-334, limits assumed)
T2 construct: also called mouse recombinant His tagged protein; not shown: His tag
T2 sequence (looked up): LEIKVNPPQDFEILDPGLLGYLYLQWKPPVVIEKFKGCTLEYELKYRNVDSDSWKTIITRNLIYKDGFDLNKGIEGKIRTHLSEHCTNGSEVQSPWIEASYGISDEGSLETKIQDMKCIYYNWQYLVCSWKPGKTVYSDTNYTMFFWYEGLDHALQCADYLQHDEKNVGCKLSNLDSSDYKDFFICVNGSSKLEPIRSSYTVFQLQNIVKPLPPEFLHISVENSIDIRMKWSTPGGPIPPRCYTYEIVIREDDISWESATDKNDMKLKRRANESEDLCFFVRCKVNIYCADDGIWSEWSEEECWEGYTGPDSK

T3: IL13RA2 Protein, Human, Recombinant (ECD)-His tag (human, UniProt Q14627 27-343)
T3 construct: extracellular domain; also called human recombinant protein extracellular domain; human IL13Ra2-His6
T3 sequence: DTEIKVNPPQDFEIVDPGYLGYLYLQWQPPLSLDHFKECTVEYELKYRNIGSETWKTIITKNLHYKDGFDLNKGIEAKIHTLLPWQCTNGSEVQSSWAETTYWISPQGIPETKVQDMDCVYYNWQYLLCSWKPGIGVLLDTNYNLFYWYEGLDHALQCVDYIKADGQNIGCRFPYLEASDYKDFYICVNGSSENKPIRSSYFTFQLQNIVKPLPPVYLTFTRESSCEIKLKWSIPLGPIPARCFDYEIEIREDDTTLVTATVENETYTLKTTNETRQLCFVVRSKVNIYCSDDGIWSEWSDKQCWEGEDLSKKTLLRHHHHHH

T4: Human CD70 mFc (human, UniProt P32970 39-193)
T4 construct: not shown: mFc
T4 sequence (looked up): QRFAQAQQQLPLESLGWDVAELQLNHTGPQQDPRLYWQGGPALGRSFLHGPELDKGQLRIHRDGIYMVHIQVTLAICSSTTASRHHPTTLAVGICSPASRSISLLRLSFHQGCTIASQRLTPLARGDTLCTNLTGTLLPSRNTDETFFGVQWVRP

T5: Mouse CD70 mFc (mouse, UniProt O55237 45-195)
T5 construct: not shown: mFc
T5 sequence (looked up): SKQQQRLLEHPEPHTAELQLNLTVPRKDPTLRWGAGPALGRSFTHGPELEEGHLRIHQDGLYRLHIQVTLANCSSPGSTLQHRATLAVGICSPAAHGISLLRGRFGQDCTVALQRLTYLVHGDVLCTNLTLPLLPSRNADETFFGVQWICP


Legend:
[1] = molecular target: T1, IL13RA2 Protein, Rhesus macaque, His tag; assay: BLI; summary of Tables 9A-9C
Procedure: (§1) Binding Affinity for the VH domains with IL13Rα2 are calculated as follows: Biotinylated VHHs were individually captured on streptavidin biosensors. VHH-captured biosensors were dipped in wells containing antigen and the binding response was measured. Biosensors were later dipped in buffer wells to observe the dissociation of bound antigen from captured VHH. (Schematic representation of the process depicted in FIG. 26, upper left corner). In this case, the IL13RA2 protein used was human recombinant protein extracellular domain; Rhesus macaque IL13R alpha 2 protein with His tag or mouse recombinant His tagged protein or irrelevant protein His tagged were used as controls.

[2] = molecular target: T2, IL13RA2 Protein, mouse Recombinant- His …; assay: BLI; summary of Tables 9A-9C
Procedure: as §1

[3] = molecular target: T3, IL13RA2 Protein, Human, Recombinant …; assay: BLI; biotinylated VHH captured on streptavidin biosensor, antigen 1 uM in solution
Procedure: as §1

[4] = molecular target: T1, IL13RA2 Protein, Rhesus macaque, His tag; assay: as above
Procedure: as §1

[5] = molecular target: T2, IL13RA2 Protein, mouse Recombinant- His …; assay: as above
Procedure: as §1

[6] = molecular target: T4, Human CD70 mFc; assay: BLI, single point; His-tagged VHH captured on HIS1K biosensor, antigen 1 uM in solution
Procedure: (§2) Next the polypeptides were characterized for CD70 binding kinetics, e.g. by affinity measurements. An affinity measurement method used in this study is illustrated in FIG. 1A, left bottom graphic image. Briefly, His-tagged VHH constructs were individually captured on HIS1K biosensors. VHH-captured biosensors were dipped in wells containing antigen and binding responses were measured. Biosensors were later dipped in buffer wells to observe the dissociation of bound antigen from the VHHs. Biosensors were regenerated and similar binding kinetic assays were performed for subsequent antigens. Single point KD analysis using BioLayer interferometry with a soluble VHH format was undertaken.

[7] = molecular target: T5, Mouse CD70 mFc; assay: as above
Procedure: as §2

Binder	Binding Response [3] [nm]	Kd [3] [nM]	koff [3] [s⁻¹]	t½ [3] [min]	Binding Response [4] [nm]	Kd [4] [nM]	koff [4] [s⁻¹]	kon [4] [M⁻¹ s⁻¹]	t½ [4] [min]	Binding Response [5] [nm]	further results
Anti-CD70 VHH, 3HCS92 (VHH, Soluble His-tagged VHH monomer captured on HIS1K biosensors; also called H1; H1 (WT)) VHH: QVQLQESGGGLVQAGGSLRLSCAAPRSIFSINAMGWYRQAPGKQRELVAAITSGGSPTYADSVKGRFTISRDNAKNTVYLQMNSLKAEDTAVYYCATGPYGLDNALDAWGQGTQVTVSS											Binding Response [6]: 0.87 nm; Kd [6]: 5.29 nM; koff [6]: 0.000377 s⁻¹; kon [6]: 71300 M⁻¹ s⁻¹; t½ [6]: 31 min; Binding Response [7]: 0.03 nm; Kd [7]: 334 nM; koff [7]: 0.000427 s⁻¹; kon [7]: 1280 M⁻¹ s⁻¹; t½ [7]: 27 min
VH43f2 (VHH, biotinylated (site not stated), Expressed in E. coli and 6xHIS purified; also called VH43f2-Biotin; Anti-IL13Rα2 VH43) VHH: QVQLQESGGGLVQPGGSLRLSCTASGSIRGIGYMAWGRQGPGKPRELIATINSAGDTNYAESVKGRFTVSRDNAENTLYLQMNNLKSEDTAVYYCNARPGLQSYWGQGTQVTVSS	0.92	4.65	0.000941	12.3	0.96	27.1	0.00164	60500	7.04	-0.04	
IL13Ra2_2TIG4_f3 (VHH, biotinylated (site not stated), Expressed in E. coli and 6xHIS purified; also called IL13Ra2_2TIG4_f3-Biotin) VHH: QVQLQESGGGLVQPGGSLRLSCAASGRTYGMGWFRQAPGKEREFVAVGVWSSGNTYYADFARGRFTISRDNAKNTVYLQMDSLKPEDTAVYYCAAPRYSSYTTYHAAYDYWGPGTQVTVSS	0.72	5.02	0.000697	17	1.17	3.62	0.000388	107000	30	-0.02	
Anti-CD70 VHH clone 3CEK186 (VHH, Soluble His-tagged VHH monomer captured on HIS1K biosensors; also called C1; C1 (WT)) VHH: QVQLQESGGGLVQTGGSLRLACTASGFTFDDYAIAWFRQAPGKEREFVAAISWSGGTTHYADSVKGRFTISRDNAKNTLYLQMSSLKPEDTAVYFCAKSLRSSPSSRWFGSRGQGTQVTVSS											Binding Response [7]: 0.01 nm
VH52f3 (VHH, biotinylated (site not stated), Expressed in E. coli and 6xHIS purified; also called VH52f3 Biotin; Anti-IL13Rα2 VH52) VHH: QVQLQESGGGLVQPGGSLRLSCEVSGSIFSINRMAWYRQVPEKEREMVAQITYGDTIKYYGSAKGRFTISRDSAKNAVYLQMNSLKPEDTAVYRCNIVGVLTTGHYEDSFWGQGTQVTVPS	0.87	≤ 0.806	≤ 0.0001	≥ 116	1.13	≤ 1.49	≤ 0.0001	67000	≥ 116	-0.02	

The next lines start with results.

Binding Response [3] [nm]	Kd [3] [nM]	koff [3] [s⁻¹]	t½ [3] [min]	Binding Response [4] [nm]	Kd [4] [nM]	koff [4] [s⁻¹]	kon [4] [M⁻¹ s⁻¹]	t½ [4] [min]	Binding Response [5] [nm]	Binder	further results
1.36	1.84	0.000397	29	0.93	112	0.00485	41700	2.4	1.17	VH57f5 (VHH, biotinylated (site not stated), Expressed in E. coli and 6xHIS purified; also called VH57f5 Biotin; Anti-IL13Rα2 VH57) VHH: QVQLQESGGGLVQPGGSLRLSCAASGSIFNTNGMGWYRQAPGKQRERVAGISSGGNTVYAASVEGRFTISRDNAKNTGYLQMNNLKPEDTAVYYCRVAGRQDDYWGQGTQVTVSS	fold decrease in affinity compared to human counterpart [1]: ~2 fold; fold decrease in affinity compared to human counterpart [2]: ~2 fold; Kd [5]: 33.7 nM; koff [5]: 0.00485 s⁻¹; kon [5]: 140000 M⁻¹ s⁻¹; t½ [5]: 2.46 min
0.67	1.3	0.000133	87	1.02	≤ 1.44	≤ 0.0001	69300	≥ 116	-0.01	VH36f1 (VHH, biotinylated (site not stated), Expressed in E. coli and 6xHIS purified; also called VH36f1 Biotin; Anti-IL13Rα2 VH36) VHH: QVQLQESGGGSVQPGGSLRLSCAASGINISSDVMEWFRQGPGEQRELVAHITTNSRTEYADFVKGRFTISRANAKNTLYLQMNGLKPEDTALYYCALRRGGRILWGQGTQVTVSS	
1.04	0.89	0.000118	98	1.35	≤ 1.42	≤ 0.0001	70200	≥ 116	-0.01	VH53f3 (VHH, biotinylated (site not stated), Expressed in E. coli and 6xHIS purified; also called VH53f3 Biotin; Anti-IL13Rα2 VH53) VHH: QVQLQESGGGLVQPGGSLRLSCEVSGSISSINRMAWYRQVPGKEREMVAQITYGDTIKYYGSAKGRFTISKDSAKNAVYLQMNSLKPEDTAVYRCNIVGVLTTGHYENSFWGQGTQVTVSS	
